Earlier results on two substances are cited in paper PMC5751705.

A word on the Kd: it is the free concentration of one partner at which half of the binding sites on the other are occupied at equilibrium, for simple one-to-one binding.

In one data set the target is YopB (Yersinia pestis) (UniProt Q06114).
Data set [1] has as its target substance P (Homo sapiens) (UniProt P20366).

Chain of YopB (Yersinia pestis) (Q06114 whole entry): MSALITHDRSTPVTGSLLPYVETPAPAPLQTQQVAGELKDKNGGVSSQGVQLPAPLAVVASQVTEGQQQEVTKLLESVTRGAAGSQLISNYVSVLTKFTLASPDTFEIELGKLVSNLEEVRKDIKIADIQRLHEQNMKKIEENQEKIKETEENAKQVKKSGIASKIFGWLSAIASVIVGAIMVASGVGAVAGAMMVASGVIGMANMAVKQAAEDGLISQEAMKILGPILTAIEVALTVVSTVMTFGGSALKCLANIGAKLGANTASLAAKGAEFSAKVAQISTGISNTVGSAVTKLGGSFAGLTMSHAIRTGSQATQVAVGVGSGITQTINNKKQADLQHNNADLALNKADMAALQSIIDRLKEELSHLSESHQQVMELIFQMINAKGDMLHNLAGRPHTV
Chain of LcrV (P0C7U7 whole entry): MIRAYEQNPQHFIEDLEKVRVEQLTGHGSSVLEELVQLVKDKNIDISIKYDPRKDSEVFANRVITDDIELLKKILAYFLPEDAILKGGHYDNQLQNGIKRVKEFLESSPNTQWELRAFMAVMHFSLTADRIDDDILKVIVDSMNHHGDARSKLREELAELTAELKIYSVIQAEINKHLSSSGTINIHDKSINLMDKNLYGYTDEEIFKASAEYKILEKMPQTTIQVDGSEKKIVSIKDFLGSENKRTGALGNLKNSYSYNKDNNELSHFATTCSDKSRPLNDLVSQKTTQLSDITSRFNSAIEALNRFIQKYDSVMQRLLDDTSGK
Chain of NK1R (P25103 whole entry): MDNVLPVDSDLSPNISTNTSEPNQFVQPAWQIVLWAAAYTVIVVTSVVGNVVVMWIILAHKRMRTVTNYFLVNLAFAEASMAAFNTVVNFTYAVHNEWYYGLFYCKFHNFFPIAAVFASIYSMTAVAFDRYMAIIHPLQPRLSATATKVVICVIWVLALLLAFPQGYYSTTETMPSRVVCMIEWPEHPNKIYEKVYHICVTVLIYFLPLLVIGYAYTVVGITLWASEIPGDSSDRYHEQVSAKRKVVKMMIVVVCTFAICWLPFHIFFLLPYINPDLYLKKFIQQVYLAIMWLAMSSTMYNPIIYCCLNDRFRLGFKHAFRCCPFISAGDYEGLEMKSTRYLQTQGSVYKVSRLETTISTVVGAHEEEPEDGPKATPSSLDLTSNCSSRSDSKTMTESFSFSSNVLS
Chain of substance P (Homo sapiens) (P20366 whole entry, looked up): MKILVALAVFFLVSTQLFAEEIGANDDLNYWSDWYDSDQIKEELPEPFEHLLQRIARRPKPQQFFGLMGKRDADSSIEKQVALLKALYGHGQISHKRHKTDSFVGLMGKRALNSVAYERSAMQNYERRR

In the case of LcrV (from UniProt P0C7U7), the Kd in the data set with YopB (Yersinia pestis) was 20.5 nM.
As for NK1R (from UniProt P25103), the equilibrium dissociation constant (Kd) in data set [1] is 83 nM.
